Measured values taken from patent US20200392227A1 (LYVGEN BIOPHARMA, published 2020).

T1: human FcRIIA protein (MednaBio, E1033) (human, UniProt P12318 34-218, limits assumed)
T1 construct: Bought; also called FcγRIIA
T1 sequence (looked up): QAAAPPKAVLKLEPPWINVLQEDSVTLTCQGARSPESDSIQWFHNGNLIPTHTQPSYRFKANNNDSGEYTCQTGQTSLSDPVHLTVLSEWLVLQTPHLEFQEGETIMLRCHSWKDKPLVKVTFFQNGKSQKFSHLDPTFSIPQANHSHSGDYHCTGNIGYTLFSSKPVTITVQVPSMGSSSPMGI

T2: human FcRIIB/C protein (MednaBio, E1034) (human, UniProt P31994 43-217, limits assumed)
T2 construct: Bought as FcRIIB/C; also called FcγRIIB; CD32B
T2 sequence (looked up): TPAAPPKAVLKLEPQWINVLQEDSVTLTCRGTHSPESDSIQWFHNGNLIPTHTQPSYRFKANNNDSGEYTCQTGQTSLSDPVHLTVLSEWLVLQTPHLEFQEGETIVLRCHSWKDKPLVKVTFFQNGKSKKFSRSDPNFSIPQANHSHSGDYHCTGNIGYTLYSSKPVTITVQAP

T3: human FcγRIIC expressed on CHO cells (human, UniProt P31995 43-323)
T3 construct: whole, on cells
T3 sequence (looked up): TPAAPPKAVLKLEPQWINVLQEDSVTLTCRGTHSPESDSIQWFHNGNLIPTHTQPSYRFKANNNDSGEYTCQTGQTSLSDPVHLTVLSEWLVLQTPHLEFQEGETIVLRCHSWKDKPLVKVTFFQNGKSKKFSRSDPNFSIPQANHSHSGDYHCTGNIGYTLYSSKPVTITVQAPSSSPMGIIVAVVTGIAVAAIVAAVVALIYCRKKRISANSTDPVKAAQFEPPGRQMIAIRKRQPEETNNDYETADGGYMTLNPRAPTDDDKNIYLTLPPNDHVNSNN

T4: human FcγRIIA(H131) expressed on CHO cells (human, UniProt P12318 34-317)
T4 construct: whole, on cells
T4 sequence (looked up): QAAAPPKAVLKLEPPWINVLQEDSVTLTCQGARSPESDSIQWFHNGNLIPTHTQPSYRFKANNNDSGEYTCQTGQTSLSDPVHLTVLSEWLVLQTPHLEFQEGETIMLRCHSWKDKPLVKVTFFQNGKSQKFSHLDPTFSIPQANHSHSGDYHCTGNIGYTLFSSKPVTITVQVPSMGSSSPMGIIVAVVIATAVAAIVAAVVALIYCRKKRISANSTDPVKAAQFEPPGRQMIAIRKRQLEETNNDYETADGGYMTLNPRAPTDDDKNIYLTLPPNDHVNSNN

T5: human FcγRIIA(R131) expressed on CHO cells (human, UniProt P12318 34-317)
T5 construct: whole, on cells
T5 sequence (looked up): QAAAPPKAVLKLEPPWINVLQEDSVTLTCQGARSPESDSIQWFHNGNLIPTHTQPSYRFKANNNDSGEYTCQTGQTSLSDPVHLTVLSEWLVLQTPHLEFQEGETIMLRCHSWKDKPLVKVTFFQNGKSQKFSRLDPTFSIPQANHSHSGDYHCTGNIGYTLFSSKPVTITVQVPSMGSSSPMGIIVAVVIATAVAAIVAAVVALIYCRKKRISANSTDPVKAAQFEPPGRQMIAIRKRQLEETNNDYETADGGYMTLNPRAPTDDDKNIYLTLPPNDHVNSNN


Key:
[1] = biological target: T6, human FcRI protein (MednaBio, E1031) (human, UniProt P12314 16-288, limits assumed); assay: BLI
T6 construct: Bought; loaded on anti-penta-HIS biosensors; also called FcγRI
Outline: (§1)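 Binding was measured by biolayer interferometry on an Octet Red96 System, with commercial human Fc receptor proteins loaded at 20 μg/mL onto anti-penta-HIS biosensors. Sensors were dipped into an 8-point 1:3 dilution series of test IgG starting at 300 nM in PBS with 0.1% BSA and 0.02% Tween-20. Fcγ receptor assays ran at pH 7.2 and FcRn assays at pH 6. Kd, kon and koff came from global fitting to a 1:1 binding model.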

[2] = biological target: T1, human FcRIIA protein (MednaBio, E1033); assay: BLI
Outline: as §1

[3] = biological target: T2, human FcRIIB/C protein (MednaBio, E1034); assay: BLI
Outline: as §1

[4] = biological target: T7, human FcRIIIA-F158 protein (MednaBio, E1036) (human, UniProt P08637 17-208); assay: BLI
T7 construct: Bought; also called FcγRIIIA(F)
Outline: as §1

[5] = biological target: T8, human FcRIIIA-V158 protein (MednaBio, E1035) (human, UniProt P08637 17-208); assay: BLI
T8 construct: Bought; also called FcγRIIIA(V); FcgRIIIA(V)
Outline: as §1

[6] = biological target: T9, human FcRIIIB protein (MednaBio, E1037) (human, UniProt O75015 17-200); assay: BLI
T9 construct: Bought; also called FcγRIIIB; FcgRIIIB
Outline: as §1

[7] = biological target: T10, human FcRn protein (MednaBio, E1032) (human, UniProt P55899 24-297; P61769 21-119); assay: BLI
T10 construct: Bought; assays at pH 6
Outline: as §1

[8] = biological target: T3, human FcγRIIC expressed on CHO cells; assay: FACS, CHO cells expressing FcγRIIC
Protocol: (§2) For FACS analysis of the IgG mutants' binding to different FcγRs, FcγR overexpressing CHO cells were harvested using trypsin-EDTA and were suspended in cold staining buffer (3% BSA in PBS). Test IgG mutants, which were diluted in staining buffer, were added into the cells. The mixture was incubated 4° C. for 2 hours, and then washed twice with cold staining buffer and re-suspended in PE-labeled anti-human IgG followed by incubation at 4° C. for 2 hours. The mixture was washed twice with staining buffer and re-suspended in 2% PFA in PBS for FACS.

[9] = biological target: T4, human FcγRIIA(H131) expressed on CHO …; assay: FACS, CHO cells expressing FcγRIIA(H131)
Protocol: FIGS. 1A-1W are charts showing binding activity of various IgG variants as indicated to different types of Fcγ receptors expressed on CHO-K1 cells at the various concentrations as indicated. The concentrations of each IgG variant, from left to right, are 0 μg/ml, 0.3 μg/ml, 1 μg/ml, 3 μg/ml, and 10 μg/ml in FIGS. 1A-1C, 1E-J, 1L-1M, 1P-1R, and 1T-1V. For FIGS. 1D, 1K, 10, 1S, and 1w the bars, from left to right, correspond to the following concentrations of IgG variant: 0.3 μg/ml, 1 μg/ml, 3 μg/ml, and 10 μg/ml.
as §2

[10] = biological target: T5, human FcγRIIA(R131) expressed on CHO …; assay: FACS, CHO cells expressing FcγRIIA(R131)
Protocol: as §2

T8 sequence (P08637 17-208 F176V): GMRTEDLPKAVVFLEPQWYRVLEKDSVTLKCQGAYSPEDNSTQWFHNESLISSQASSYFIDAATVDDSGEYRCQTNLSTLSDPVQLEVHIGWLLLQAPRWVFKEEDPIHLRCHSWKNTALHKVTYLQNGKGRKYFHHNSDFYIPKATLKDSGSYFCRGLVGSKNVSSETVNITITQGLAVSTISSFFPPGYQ
T7 sequence (P08637 17-208 limits assumed): as the sequence (P08637 17-208 F176V) above, with V160F counted along it
T9 sequence (O75015 17-200 limits assumed): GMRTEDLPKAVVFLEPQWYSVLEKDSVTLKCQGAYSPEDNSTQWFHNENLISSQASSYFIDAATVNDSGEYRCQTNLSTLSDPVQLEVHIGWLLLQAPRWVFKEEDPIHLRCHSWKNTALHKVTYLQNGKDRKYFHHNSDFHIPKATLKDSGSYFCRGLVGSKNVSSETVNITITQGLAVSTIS
T6 sequence (P12314 16-288 limits assumed): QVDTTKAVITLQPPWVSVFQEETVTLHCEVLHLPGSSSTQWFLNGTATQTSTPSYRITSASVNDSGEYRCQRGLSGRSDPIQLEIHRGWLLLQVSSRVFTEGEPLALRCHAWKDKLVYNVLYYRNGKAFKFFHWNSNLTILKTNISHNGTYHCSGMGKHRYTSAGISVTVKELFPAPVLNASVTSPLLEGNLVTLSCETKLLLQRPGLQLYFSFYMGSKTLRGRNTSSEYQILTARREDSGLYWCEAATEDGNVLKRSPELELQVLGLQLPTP

binding result [1] | binding result [2] | binding result [3] | binding result [4] | binding result [5] | binding result [6] | Kd [7] [nM] | koff [7] [s⁻¹] | kon [7] [M⁻¹ s⁻¹] | binding result [8] | binding result [9] | binding result [10] | Kd [3] [nM] | koff [3] [s⁻¹] | kon [3] [M⁻¹ s⁻¹] | Kd [1] [nM] | koff [1] [s⁻¹] | kon [1] [M⁻¹ s⁻¹] | Binder
no binding (tested: 300 nM) | no binding (tested: 300 nM) | no binding (tested: 300 nM) | no binding (tested: 300 nM) | no binding (tested: 300 nM) | no binding (tested: 300 nM) | 15 | 0.0093 | 620000 | no binding (tested: 10 ug/ml) | no binding (tested: 10 ug/ml) | no binding (tested: 10 ug/ml) |  |  |  |  |  |  | anti-CD137 IgG1 with Fc variant G1m25 (antibody, copies: 2 + 2) heavy: EVQLVQSGAEVKKPGESLRISCKGSGYSFSTYWISWVRQMPGKGLEWMGKIYPGDSYTNYSPSFQGQVTISADKSISTAYLQWSSLKASDTAMYYCARGYGIFDYWGQGTLVTVSSASTKGPSVFPLAPSSKSTSGGTAALGCLVKDYFPEPVTVSWNSGALTSGVHTFPAVLQSSGLYSLSSVVTVPSSSLGTQTYICNVNHKPSNTKVDKKVEPKSCDKTHTCPPCPAPELLGPSVFLFPPKPKDTLMISRTPEVTCVVVDVSHEDPEEKFNWYVDGVEVHNAKTKPREEQYNSTYRVVSVLTVLHQDWLNGKEYKCKVSNKALPAPIEKTISKAKGQPREPQVYTLPPSREEMTKNQVSLTCLVKGFYPSDIAVEWESNGQPENNYKTTPPVLDSDGSFFLYSKLTVDKSRWQQGNVFSCSVMHEALHNHYTQKSLSLSPGK light: SYELTQPPSVSVSPGQTASITCSGDNIGDQYAHWYQQKPGQSPVLVIYQDKNRPSGIPERFSGSNSGNTATLTISGTQAMDEADYYCATYTGFGSLAVFGGGTKLTVLGQPKAAPSVTLFPPSSEELQANKATLVCLISDFYPGAVTVAWKADSSPVKAGVETTTPSKQSNNKYAASSYLSLTPEQWKSHRSYSCQVTHEGSTVEKTVAPTECS
no binding (tested: 300 nM) | no binding (tested: 300 nM) |  | no binding (tested: 300 nM) | no binding (tested: 300 nM) | no binding (tested: 300 nM) | 16 | 0.01 | 650000 |  | no binding (tested: 10 ug/ml) |  | 410 | 0.1 | 260000 |  |  |  | anti-CD137 IgG1 with Fc variant G1m27 (antibody, copies: 2 + 2) heavy: EVQLVQSGAEVKKPGESLRISCKGSGYSFSTYWISWVRQMPGKGLEWMGKIYPGDSYTNYSPSFQGQVTISADKSISTAYLQWSSLKASDTAMYYCARGYGIFDYWGQGTLVTVSSASTKGPSVFPLAPSSKSTSGGTAALGCLVKDYFPEPVTVSWNSGALTSGVHTFPAVLQSSGLYSLSSVVTVPSSSLGTQTYICNVNHKPSNTKVDKKVEPKSCDKTHTCPPCPAPELLGPSVFLFPPKPKDTLMISRTPEVTCVVVDVEHEDPEVKFNWYVDGVEVHNAKTKPREEQYNSTYRVVSVLTVLHQDWLNGKEYKCKVSNKALPAPIEKTISKAKGQPREPQVYTLPPSREEMTKNQVSLTCLVKGFYPSDIAVEWESNGQPENNYKTTPPVLDSDGSFFLYSKLTVDKSRWQQGNVFSCSVMHEALHNHYTQKSLSLSPGK light: SYELTQPPSVSVSPGQTASITCSGDNIGDQYAHWYQQKPGQSPVLVIYQDKNRPSGIPERFSGSNSGNTATLTISGTQAMDEADYYCATYTGFGSLAVFGGGTKLTVLGQPKAAPSVTLFPPSSEELQANKATLVCLISDFYPGAVTVAWKADSSPVKAGVETTTPSKQSNNKYAASSYLSLTPEQWKSHRSYSCQVTHEGSTVEKTVAPTECS
 | no binding (tested: 300 nM) |  | no binding (tested: 300 nM) | no binding (tested: 300 nM) | no binding (tested: 300 nM) | 17 | 0.011 | 650000 |  | no binding (tested: 10 ug/ml) | no binding (tested: 10 ug/ml) | 410 | 0.2 | 480000 | 240 | 0.16 | 640000 | anti-CD137 IgG1 with Fc variant G1m28 (antibody, copies: 2 + 2) heavy: EVQLVQSGAEVKKPGESLRISCKGSGYSFSTYWISWVRQMPGKGLEWMGKIYPGDSYTNYSPSFQGQVTISADKSISTAYLQWSSLKASDTAMYYCARGYGIFDYWGQGTLVTVSSASTKGPSVFPLAPSSKSTSGGTAALGCLVKDYFPEPVTVSWNSGALTSGVHTFPAVLQSSGLYSLSSVVTVPSSSLGTQTYICNVNHKPSNTKVDKKVEPKSCDKTHTCPPCPAPELLGPSVFLFPPKPKDTLMISRTPEVTCVVVDVSHEDPEVKFNWYVDGVEVHNAKTKPREEQYNSTYRVVSVLTVLHQDWLNGKEYKCKVSNKAFPAPIEKTISKAKGQPREPQVYTLPPSREEMTKNQVSLTCLVKGFYPSDIAVEWESNGQPENNYKTTPPVLDSDGSFFLYSKLTVDKSRWQQGNVFSCSVMHEALHNHYTQKSLSLSPGK light: SYELTQPPSVSVSPGQTASITCSGDNIGDQYAHWYQQKPGQSPVLVIYQDKNRPSGIPERFSGSNSGNTATLTISGTQAMDEADYYCATYTGFGSLAVFGGGTKLTVLGQPKAAPSVTLFPPSSEELQANKATLVCLISDFYPGAVTVAWKADSSPVKAGVETTTPSKQSNNKYAASSYLSLTPEQWKSHRSYSCQVTHEGSTVEKTVAPTECS
